The target of the test is CD215 (IL-15Rα), CD122 (IL-15Rβ), and CD132 (IL-15Rγ) proteins expressed together on the HEK Blue cell line. The test can be described thus: cell-based or functional assay.

In turn, “Wild-type IL-2 (from UniProt P60568 21-153) (ligand)” displayed an EC50 (nM), SEAP reporter at 620 nm, HEK Blue cell line of 0.007 nM.

The values above are taken from patent EP4741426A1.
